# Results as given in patent publication US20180140689A1 (PROBIODRUG, published 2018).
# Non-standard residues stand in square brackets, D forms with d. No end group written: not given here. pGlu = O=C1CC[C@@H](C(=O)O)N1
# T1: human Aβ pE3-18 peptide, pEFRHDSGYEVHHQKLV (human)
# T1 construct: The range 3-18 counts on the Aβ peptide; also called pE3-Aβ18; pE3-Aβ peptide
# T1 peptide: [pGlu]FRHDSGYEVHHQKLV
# Molecular target: T1, human Aβ pE3-18 peptide, …
# Test: SPR, 1:1 Langmuir fit
# Method: First a polyclonal α-human antibody was coupled to an SPR-Chip subsequent loaded with the humanized antibody until the Response Unit was more than 1000.
# Kinetic measurement was performed at different concentrations (of 5 to 1000 nM) of AβpE3-18-peptide. The graphs of the measured series are shown as an overlay plot with the sensorgrams, corrected by the sensogram measuring the running buffer, aligned at the time of injection and the baseline adjusted to zero before injection. The results are evaluated according to a simple 1:1 interaction model (Langmuir fit), which promote the koff and kₒₙ rate constants.
Kd,koff,kon,Molecule
5.09 nM,0.00323 s⁻¹,635000 M⁻¹ s⁻¹,"humanized antibody clone #6 sequence variant VH: SEQ ID NO: 27, VL: SEQ ID NO: 14 (antibody, human IgG1, V domains shown) VH: QVQLVQSGAEVKKSGASVKVSCKASGYSFTGHTMNWVRQAPGQGLEWMGLINPSNGVTRYNQKFQGRVTITRDTSTTTVHMELTSLTSEDTATYYCTREAKREWDETYWGQGTLVTVSS VL: DVVMTQSPLSLPVTLGQPASISCKSSQSLLYSDGKTYLNWFQQRPGQSPRRLTYLVSKLDSGVPDRFSGSGSGTDFTLKISRVEAEDVGVYYCVQGTHFPFTFGGGTKVEIK"
8.43 nM,0.00357 s⁻¹,423000 M⁻¹ s⁻¹,"humanized antibody clone #6 sequence variant VH: SEQ ID NO: 70, VL: SEQ ID NO: 14 (antibody, human IgG1, V domains shown) VH: QVQLVQSGAEVKKSGASVKVSCKASGYSFTGHTMNWVRQAPGQGLEWMGLINPSNEVTRYNQKFQGRVTITRDTSTTTVHMELTSLTSEDTATYYCTREAKREWDETYWGQGTLVTVSS VL: DVVMTQSPLSLPVTLGQPASISCKSSQSLLYSDGKTYLNWFQQRPGQSPRRLTYLVSKLDSGVPDRFSGSGSGTDFTLKISRVEAEDVGVYYCVQGTHFPFTFGGGTKVEIK"
15.5 nM,0.00415 s⁻¹,267000 M⁻¹ s⁻¹,"humanized antibody clone #6 sequence variant VH: SEQ ID NO: 27, VL: SEQ ID NO: 15 (antibody, human IgG1, V domains shown) VH: QVQLVQSGAEVKKSGASVKVSCKASGYSFTGHTMNWVRQAPGQGLEWMGLINPSNGVTRYNQKFQGRVTITRDTSTTTVHMELTSLTSEDTATYYCTREAKREWDETYWGQGTLVTVSS VL: DVVMTQSPLSLPVTLGQPASISCKSSQSLLHSDGKTYLNWFQQRPGQSPRRLTYLVSKLDSGVPDRFSGSGSGTDFTLKISRVEAEDVGVYYCVQGTHFPFTFGGGTKVEIK"
7.35 nM,0.00413 s⁻¹,562000 M⁻¹ s⁻¹,"humanized antibody clone #6 sequence variant VH: SEQ ID NO: 27, VL: SEQ ID NO: 13 (antibody, human IgG1, V domains shown) VH: QVQLVQSGAEVKKSGASVKVSCKASGYSFTGHTMNWVRQAPGQGLEWMGLINPSNGVTRYNQKFQGRVTITRDTSTTTVHMELTSLTSEDTATYYCTREAKREWDETYWGQGTLVTVSS VL: DVVMTQSPLSLPVTLGQPASISCKSSQSLLYSDGKTYLNWFQQRPGQSPRRLAYLVSKLDSGVPDRFSGSGSGTDFTLKISRVEAEDVGVYYCVQGTHFPFTFGGGTKVEIK"
9.36 nM,0.00576 s⁻¹,616000 M⁻¹ s⁻¹,"humanized antibody clone #6 sequence variant VH: SEQ ID NO: 24, VL: SEQ ID NO: 14 (antibody, human IgG1, V domains shown) VH: QVQLVQSGAEVKKSGASVKVSCKASGYSFTGHTMNWVRQAPGQGLEWMGLINPSNGVTRYNQKFQGRVTITRDTSTTTVHMELTSLTSEDTAVYYCTREAKREWDETYWGQGTLVTVSS VL: DVVMTQSPLSLPVTLGQPASISCKSSQSLLYSDGKTYLNWFQQRPGQSPRRLTYLVSKLDSGVPDRFSGSGSGTDFTLKISRVEAEDVGVYYCVQGTHFPFTFGGGTKVEIK"

# Molecular target: full length human CD32A on CHO cells (human) (UniProt P12318)
# Sequence (P12318 34-317): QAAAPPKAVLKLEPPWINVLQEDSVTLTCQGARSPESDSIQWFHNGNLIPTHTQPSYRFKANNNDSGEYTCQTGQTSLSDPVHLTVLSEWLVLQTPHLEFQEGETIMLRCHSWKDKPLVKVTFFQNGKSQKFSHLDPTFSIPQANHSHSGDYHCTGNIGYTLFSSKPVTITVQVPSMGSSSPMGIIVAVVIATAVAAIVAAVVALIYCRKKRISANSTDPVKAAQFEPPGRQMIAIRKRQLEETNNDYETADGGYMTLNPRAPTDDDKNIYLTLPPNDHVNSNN
# Test: FACS on CHO cells stably expressing full length human CD32A, bound antibody detected with fluorochrome-conjugated anti-Fab'
row,EC50 (read off the curve),Molecule
1,100 nM,antibody comprising the K324A mutant variant of the human IgG1 Fc region (SEQ ID NO: 74)
2,100 nM,antibody comprising the human IgG1 Fc wild-type region of SEQ ID NO: 73
